According to patent US10907134B2, “Mutated genes for the catalytic protein of oplophorus luciferase and use thereof” (JNC CORPORATION, priority 2013, dated 2021):
Where a chain is given by its changes, count along the chain named. Names may count otherwise.

B1: KAZ-A54I: KAZ with single amino acid substitution A54I, SEQ ID NO: 6 (protein)
chain: FTLADFVGDWQQTAGYNQDQVLEQGGLSSLFQALGVSVTPIQKVVLSGENGLKIDIHVIIPYEGLSGFQMGLIEMIFKVVYPVDDHHFKIILHYGTLVIDGVTPNMIDYFGRPYPGIAVFDGKQITVTGTLWNGNKIYDERLINPDGSLLFRVTINGVTGWRLCENILA
B2: KAZ-V44I-A54I: KAZ mutant with two amino acid substitutions V44I and A54I, SEQ ID NO: 10 (protein)
chain: B1 chain with V44I
B3: KAZ-V44I-Y138I: KAZ mutant with two amino acid substitutions V44I and Y138I, SEQ ID NO: 12 (protein)
chain: B1 chain with V44I, I54A, Y138I
B4: KAZ-V44I: KAZ with single amino acid substitution V44I, SEQ ID NO: 4 (protein)
chain: B1 chain with V44I, I54A
B5: KAZ-A54I-Y138I: KAZ mutant with two amino acid substitutions A54I and Y138I, SEQ ID NO: 14 (protein)
chain: B1 chain with Y138I
B6: KAZ-Y138I: KAZ with single amino acid substitution Y138I, SEQ ID NO: 8 (protein)
chain: B1 chain with I54A, Y138I

system: not listed separately; experiment: Substrate specificities of KAZ mutants (ZZ-fused, crude enzyme), CTZ; assay type: biochemical; settings: ZZ-fused crude enzyme; 1 μg substrate; integrated for 60 seconds
Protocol: (§1) The coelenterazine analogues used for substrate specificity studies were synthesized by the methods described in publications. Specifically, bis-coelenterazine was synthesized by the method described in Nakamura et al. (1997) Tetrahedron Lett. 38: 6405-6406; furimazine by the method described in Hall et al. (2012) ACS Chem. Biol. […]; and, 6h-coelenterazine, f-coelenterazine and 6h-f-coelenterazine by the methods described in Inouye et al (2013) Biochem. Biophys. Res. Commun. 437: 23-28.
(§2) DTT was added to the crude enzyme solutions obtained in EXAMPLE 17 at a final concentration of 1 mM and the mixtures were allowed to stand in an ice water for more than 5 hours in the same manner as Example 8. A luminescence reaction was started by the addition of 1 μL each of the crude enzyme solutions to 100 μL of TE containing 1 μg of coelenterazine (manufactured by JNC Corp.) or its analogues. The luminescence activities were determined using a luminometer (manufactured by Atto Inc.: AB2200) for 60 seconds, and the maximum intensity of luminescence (Imax) was shown as relative luminescence activity.

Compared with B1, B2 is higher in “Relative Luminescence Activity CTZ Int.” value: 9.0 for the first, 12.7 for the second.

Compared with B3, B4 is lower in “Relative Luminescence Activity CTZ Int.” value: 9.9 for the first, 5.9 for the second.

First: B5
Second: B6
The “Relative Luminescence Activity CTZ Int.” value of the first is higher: 19.1 for the first, 5.9 for the second.

same assay, conditions: ZZ-fused crude enzyme; 1 μg substrate; maximum intensity of luminescence

First: B1
Second: B2
The “Relative Luminescence Activity CTZ Imax” value of the first is lower: 8.4 for the first, 15.3 for the second.

Compared with B3, B4 is lower in “Relative Luminescence Activity CTZ Imax” value: 17.1 for the first, 7.2 for the second.

First: B5
Second: B6
The “Relative Luminescence Activity CTZ Imax” value of the first is higher: 23.1 for the first, 7.5 for the second.

same assay, conditions: coelenterazine versus its analogues

In the case of B2, the “Substrate specificity” value is reported as “high substrate specificity for coelenterazine”.
In the case of B3, the “Substrate specificity” value is reported as “high substrate specificity for coelenterazine”.
For B5, the “Substrate specificity” value was “high substrate specificity for coelenterazine”.

system: not listed separately; experiment: Substrate specificities of KAZ mutants (ZZ-fused, crude enzyme), h-CTZ; assay type: biochemical; settings: 1 μg substrate, integrated for 60 seconds
Protocol: as §1, §2

First: B1
Second: B2
The “Relative Luminescence Activity h-CTZ Int.” value of the first is lower: 6.9 for the first, 8.7 for the second.

Compared with B3, B4 is lower in “Relative Luminescence Activity h-CTZ Int.” value: 9.7 for the first, 2.2 for the second.

First: B5
Second: B6
The “Relative Luminescence Activity h-CTZ Int.” value of the first is higher: 12.9 for the first, 3.0 for the second.

same assay, conditions: 1 μg substrate, maximum intensity of luminescence

Compared with B1, B2 is higher in “Relative Luminescence Activity h-CTZ Imax” value: 11.8 for the first, 17.9 for the second.

Compared with B3, B4 is lower in “Relative Luminescence Activity h-CTZ Imax” value: 19.1 for the first, 3.7 for the second.

Compared with B5, B6 is lower in “Relative Luminescence Activity h-CTZ Imax” value: 24.2 for the first, 3.9 for the second.

system: not listed separately; experiment: Substrate specificities of KAZ mutants (ZZ-fused, crude enzyme), 6h-CTZ; assay type: biochemical; settings: 1 μg substrate, integrated for 60 seconds
Protocol: as §1, §2

Compared with B1, B2 is higher in “Relative Luminescence Activity 6h-CTZ Int.” value: 2.1 for the first, 5.6 for the second.

Compared with B3, B4 is lower in “Relative Luminescence Activity 6h-CTZ Int.” value: 5.3 for the first, 0.6 for the second.

Compared with B5, B6 is lower in “Relative Luminescence Activity 6h-CTZ Int.” value: 6.1 for the first, 0.3 for the second.

same assay, conditions: 1 μg substrate, maximum intensity of luminescence

Going from B1 to B2, the “Relative Luminescence Activity 6h-CTZ Imax” value rises from 1.6 to 4.5.

Going from B3 to B4, the “Relative Luminescence Activity 6h-CTZ Imax” value falls from 4.3 to 0.4.

Going from B5 to B6, the “Relative Luminescence Activity 6h-CTZ Imax” value falls from 5.8 to 0.2.

system: not listed separately; experiment: Substrate specificities of KAZ mutants (ZZ-fused, crude enzyme), bis-CTZ; assay type: biochemical; settings: 1 μg substrate, integrated for 60 seconds
Protocol: as §1, §2

Going from B1 to B2, the “Relative Luminescence Activity bis-CTZ Int.” value rises from 3.4 to 5.9.

Compared with B3, B4 is lower in “Relative Luminescence Activity bis-CTZ Int.” value: 8.3 for the first, 1.4 for the second.

Going from B5 to B6, the “Relative Luminescence Activity bis-CTZ Int.” value falls from 9.2 to 1.5.

same assay, conditions: 1 μg substrate, maximum intensity of luminescence

Going from B1 to B2, the “Relative Luminescence Activity bis-CTZ Imax” value rises from 3.0 to 5.7.

Going from B3 to B4, the “Relative Luminescence Activity bis-CTZ Imax” value falls from 7.9 to 1.1.

First: B5
Second: B6
The “Relative Luminescence Activity bis-CTZ Imax” value of the first is higher: 9.5 for the first, 1.3 for the second.

system: CHO-K1 cells; experiment: Luminescence activity of KAZ mutants expressed in animal culture cells with signal peptide of Gaussia luciferase for secretion; assay type: cell-based, Chinese hamster; settings: Table 5; pcDNA3-GLsp- vectors; CHO-K1, 48 hours; 5 μL cell extracts; 0.5 μg coelenterazine
Protocol: (§3) Chinese hamster ovary cell line CHO-K1 was cultured in Ham's F-12 medium (manufactured by Wako Pure Chemical Industries, Ltd.) supplemented with 10% (v/v) fetal bovine serum (manufactured by Biowest Inc.). The CHO-K1 cells were plated in a 6-well plate in 1×10^5 cells/well/2 mL medium (n=2) and cultured in an incubator at 37° C. in 5% (v/v) CO2. After 24 hours, the purified recombinant plasmid was transfected to CHO-K1 cells using a FuGene HD transfection kit (manufactured by Promega Corp.), which was provided for subsequent experiment. Specifically, 1 μg of the recombinant plasmid pGL4.13 [Luc2/sv40], 0.1 μg of the internal standard vector and 3 μL of FuGene HD were added to 100 μL of the medium, which was allowed to stand at room temperature for 15 minutes. Subsequently, 100 μL of the DNA-FuGene complex was added to the cells in the 6 wells. After incubation for 48 hours, the culture medium was collected. On the other hand, the KAZ mutants expressed in the cells were washed 3 times with 3 mL of 1×PBS, then suspended in 1 mL of 1×PBS and disrupted on ice by ultrasonication, which was used as enzyme solutions of the cell-extracts of KAZ mutants.
(§4) A luminescence reaction was started by adding 5 μL of the culture media and cell extracts obtained in EXAMPLE 10 to 100 μL of 30 mM Tris-HCl (pH 7.6)-10 mM EDTA (manufactured by Wako Pure Chemical Industries, Ltd.) containing 0.5 μg of coelenterazine (manufactured by INC Corp.). The luminescence activity was determined using a luminometer (manufactured by Atto Inc.: AB2200) for 60 seconds, and the maximum intensity of luminescence (Imax) was defined as a percentage.
Culture media of the KAZ mutants with two amino acid substitutions and KAZ mutants with three amino acid substitutions and the enzyme solutions of the cell-extracts of KAZ mutants were prepared in the same manner as EXAMPLE 10.
In the resultant enzyme solutions and the enzyme solutions of the cell-extracts of KAZ mutants, luminescence activities were determined in the same manner as EXAMPLE 11.

Compared with B1, B4 is lower in “Relative Luminescence Activity (Imax) (%) Cell Extracts” value: 2.4% for the first, 0.7% for the second.

In the case of B6, the “Relative Luminescence Activity (Imax) (%) Cell Extracts” value is reported as 1.0%.

same assay, conditions: Table 5; pcDNA3-GLsp- vectors; CHO-K1, 48 hours; 5 μL culture medium; 0.5 μg coelenterazine

With B1 the “Relative Luminescence Activity (Imax) (%) Culture Medium” value was “less than 0.01%”.
In the case of B4, the “Relative Luminescence Activity (Imax) (%) Culture Medium” value is reported as “less than 0.01%”.
In the case of B6, the “Relative Luminescence Activity (Imax) (%) Culture Medium” value is reported as “less than 0.01%”.

same assay, conditions: Table 11; pcDNA3-GLsp- vectors; CHO-K1; cell extracts; coelenterazine

First: B2
Second: B3
The “Relative Luminescence Activity (%, Imax) Cell Extracts” value of the first is higher: 13.9% for the first, 11.2% for the second.

For B5, the “Relative Luminescence Activity (%, Imax) Cell Extracts” value was 16.0%.

same assay, conditions: Table 11; pcDNA3-GLsp- vectors; CHO-K1; culture medium; coelenterazine

Going from B2 to B5, the “Relative Luminescence Activity (%, Imax) Culture Medium” value falls from 0.07% to 0.03%.

In the case of B3, the “Relative Luminescence Activity (%, Imax) Culture Medium” value is reported as “less than 0.01%”.

system: CHO-K1 cells; experiment: Luminescence activity of KAZ mutants expressed in animal culture cells without secretional signal peptide sequence; assay type: cell-based, Chinese hamster; settings: Table 12; pcDNA3- vectors without secretion signal; CHO-K1; cell extracts; coelenterazine
Protocol: as §3, §4
The gene fragments of the KAZ mutants with two amino acid substitutions and three amino acid substitutions and nanoKAZ containing the Kozak sequence were digested with restriction enzymes Asp718 and XbaI, and inserted into the Asp718-XbaI site of pcDNA3 vector (manufactured by Invitrogen Inc.) to construct the vectors of pcDNA3-KAZ-V44I, pcDNA3-KAZ-A54I, pcDNA3-KAZ-Y138I, pcDNA3-KAZ-V44I-A54I, pcDNA3-KAZ-V44I-Y138I, pcDNA3-KAZ-A54I-Y138I and pcDNA3-KAZ-V44I-A54I-Y138I.
The culture media of the KAZ mutants with two amino acid substitutions and KAZ mutants with three amino acid substitutions and the enzyme solutions of cell-extracts of KAZ mutants were obtained in the same manner as EXAMPLE 10.
Luminescence activities of the resulting enzyme solutions and enzyme solutions of the cell-extracts of KAZ mutants were determined in the same manner as EXAMPLE 11.

Going from B1 to B2, the “Relative Luminescence Activity (Imax) Cell Extracts” value rises from 6.7 to 22.5.

First: B3
Second: B4
The “Relative Luminescence Activity (Imax) Cell Extracts” value of the first is higher: 14.7 for the first, 3.7 for the second.

First: B5
Second: B6
The “Relative Luminescence Activity (Imax) Cell Extracts” value of the first is higher: 21.5 for the first, 6.4 for the second.

same assay, conditions: Table 12; pcDNA3- vectors without secretion signal; CHO-K1; culture medium; coelenterazine

Going from B1 to B2, the “Relative Luminescence Activity (Imax) Culture Medium” value rises from 0.03 to 0.05.

First: B3
Second: B4
The “Relative Luminescence Activity (Imax) Culture Medium” value of the first is lower: 0.04 for the first, 0.06 for the second.

First: B5
Second: B6
The “Relative Luminescence Activity (Imax) Culture Medium” value of the first is higher: 0.05 for the first, 0.03 for the second.

same assay, conditions: summary of results

With B2 the “Luminescence activity compared with wild KAZ when coelenterazine was used as a substrate” value was “markedly higher luminescence activities than wild KAZ”.
In the case of B3, the “Luminescence activity compared with wild KAZ when coelenterazine was used as a substrate” value is reported as “markedly higher luminescence activities than wild KAZ”.
With B5 the “Luminescence activity compared with wild KAZ when coelenterazine was used as a substrate” value was “markedly higher luminescence activities than wild KAZ”.

same assay, conditions: vectors without a secretion signal; CHO-K1; coelenterazine

First: B1
Second: B2
The “Luminescence activity in the cell extracts, fold higher than wild KAZ” value of the first is lower: 6.7 fold for the first, 23 fold for the second.

Compared with B3, B4 is lower in “Luminescence activity in the cell extracts, fold higher than wild KAZ” value: 15 fold for the first, 3.7 fold for the second.

Compared with B5, B6 is lower in “Luminescence activity in the cell extracts, fold higher than wild KAZ” value: 22 fold for the first, 6.4 fold for the second.
